{"source": "paper PMC3740589", "target": "Bcl-2 (UniProt P10415)", "experiment": "Flag-Beclin1 IP, Bcl-2 immunoblot", "details": "reference: Flag-Beclin1 wild type; sites T119", "data": [{"substance": "Beclin1 (from UniProt Q14457) Flag-Beclin1 T119A", "values": [{"measurement": "binding against the reference", "result": "stronger"}]}]}
